Experimental data: patent US20240238445A1, “INHIBITORS AND USES THEREOF” (NEURACLE SCIENCE CO., LTD., priority 2021, published 2024)

B1: LRRC4B (453-576): LRRC4B ectodomain fragment, amino acids 453-576 of SEQ ID NO: 2; FLAG-tagged or hFc-fused (protein)
chain: VSAVDPVAAGGTGSGGGGPGGSGGVGGGSGGYTYFTTVTVETLETQPGEEALQPRGTEKEPPGPTTDGVWGGGRPGDAAGPASSSTTAPAPRSSRPTEKAFTVPITDVTENALKDLDDVMKTTK
modifications: FLAG tag or human Fc
notes: FLAG-tagged or hFc-fused

Assays:
[1] = target: binding of FAM19A5 protein to full-length ectodomain of LRRC4C protein (Homo sapiens, UniProt Q7Z5A7); test: Competitive inhibition assay, plate coated with full-length ectodomain of LRRC4C; details: FAM19A5 5 ng/mL; 100 nM/well coat
Protocol: As described in Example 3, there appeared to be much similarity in the binding domains of the different members of the LRRC4 family. […] Then, recombinant FAM19A5 protein (5 ng/mL) was added in combination with one of the following: (i) LRRC4B (484-576) protein fragment, (ii) LRRC4B (453-576, AA) protein fragment, and (iii) synthetic FB-20 peptide. The plates were incubated at 37° C., and then, the amount of FAM19A5 protein bound to the coated LRRC4, LRRC4B, or LRRC4C proteins was measured using anti-FAM19A5 (1-65) antibody.

[2] = target: binding of FAM19A5 protein to LRRC4B (amino acids 453-576)-hFc (Homo sapiens, UniProt Q7Z5A7); test: Competitive inhibition assay, plate coated with LRRC4B (amino acids 453-576)-hFc, peptides at 20 nM
Text: Next, to assess whether polypeptides comprising the binding domains of LRRC4 or LRRC4C proteins can have similar inhibitory effects on LRRC4B protein binding, the following synthetic peptides were constructed: (1) FBC4-23 (contains the binding domain of the LRRC4 protein, i.e., YSFFTTVTVETTE); and (2) FBC4C-23 (contains the binding domain of the LRRC4C protein, i.e., FSYFSTVTVETME). Then, the ability of the peptides to inhibit the binding of LRRC4 protein family members to FAM19A5 protein was assessed using a competitive inhibition assay. Briefly, plates were coated with 100 nM of either LRRC4B protein fragment #1 (amino acids 36-576 of SEQ ID NO: 2; SEQ ID NO: 5) or LRRC4B protein fragment #2 (amino acids 453-576 of SEQ ID NO: 2; SEQ ID NO: 7). Then, recombinant FAM19A5 protein (5 ng/ml for plates coated with LRRC4B fragment #1; and 1 ng/mL for plates coated with LRRC4B fragment #2) was added to the plates in combination with 20 nM of the FBC4-23, FBC4C-23, and FB-20 peptides. The plates were incubated at 37° C. and then, the amount of FAM19A5 protein bound to the coated LRRC4B protein fragments was assessed using HRP-conjugated anti-FAM19A5 (1-65) antibody.
Next, to determine the minimal sequence required to inhibit the interaction of FAM19A5 and members of the LRRC4 protein family, ten FB-20 peptide variants were constructed by serially deleting one or more amino acids from the N-terminus or C-terminus of the FB-20 peptide. Then, a competitive inhibition assay was used to assess the ability of the different FB-20 peptide variants to inhibit the interaction between FAM19A5 and LRRC4B protein. Again, plates were coated with 100 nM of either LRRC4B protein fragment #1 (amino acids 36-576 of SEQ ID NO: 2; SEQ ID NO: 5) or LRRC4B protein fragment #2 (amino acids 453-576 of SEQ ID NO: 2; SEQ ID NO: 7). Then, recombinant FAM19A5 protein (5 ng/ml for plates coated with LRRC4B fragment #1; and 1 ng/mL for plates coated with LRRC4B fragment #2) was added to the plates in combination with 20 nM of the different peptides described above. After incubating the plates at 37° C., the amount of FAM19A5 protein bound to the coated LRRC4B protein fragments was assessed using HRP-conjugated anti-FAM19A5 (1-65) antibody.
To identify the critical amino acid residues, multiple FB-20 peptide mutants were constructed, in which the individual residues of the core binding domain (i.e., YTYFTTVTVETLE; SEQ ID NO: 15) were substituted with alanine (A) or asparagine (N). Then, the ability of these FB-20 peptide mutants to inhibit the interaction between LRRC4B and FAM19A5 proteins was assessed, as described in Examples 3 and 4.

[3] = target: T1, FAM19A5 isoform 2 - LRRC4B protein complex in HEK293 cells (Homo sapiens, UniProt Q7Z5A7); test: Immunofluorescence: dissociation of FAM19A5 from full-length LRRC4B in HEK293 cells; assay type: cell-based; details: HEK293 cells expressing FAM19A5 isoform 2 and LRRC4B, treated 30 minutes
T1 construct: expressed in transfected cells; host or cells: HEK293
Protocol: Since LRRC4B protein fragments containing the binding domain described in Example 2 (e.g., LRRC4B (453-576); i.e., construct #11 in Table 6) was able to bind to FAM19A5 protein with high affinity, it was next assessed whether such protein fragments could compete with naturally existing LRRC4B protein for binding to FAM19A5 protein, and thereby, dissociate the FAM19A5-LRRC4 protein family complex. Briefly, HEK293 cells expressing both FAM19A5 isoform 2 and LRRC4B protein were treated in vitro for 30 minutes with either LRRC4B (453-576)-hFc or mutant LRRC4B (453-576)-hFc (includes alanine substitutions at positions 488 and 489 of SEQ ID NO: 2; SEQ ID NO: 16) protein fragments. Then, cells were immunostained with anti-FAM19A5 (1-65) and anti-LRRC4B antibodies to determine the expression of FAM19A5 and full-length LRRC4B proteins, respectively. The hFc-fused LRRC4B protein fragments were determined using an anti-hIgG antibody. The nuclei were stained with Hoechst 33342.

Sequence of binding of FAM19A5 protein to LRRC4B (amino acids 453-576)-hFc (Q7Z5A7 44-132): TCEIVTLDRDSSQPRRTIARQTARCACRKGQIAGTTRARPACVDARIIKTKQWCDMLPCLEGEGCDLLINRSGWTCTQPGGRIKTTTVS
Sequence of binding of FAM19A5 protein to full-length ectodomain of LRRC4C protein (Q7Z5A7 44-132): as above
T1 sequence (Q7Z5A7 1-125 isoform Q7Z5A7-2, one chain of several): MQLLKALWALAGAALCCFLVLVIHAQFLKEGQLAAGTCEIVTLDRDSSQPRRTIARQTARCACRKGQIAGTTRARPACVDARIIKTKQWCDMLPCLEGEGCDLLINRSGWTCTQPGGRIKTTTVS

| Molecule | inhibition of FAM19A5 binding to coated LRRC4C protein (in words) [1] | Inhibition rate (%) LRRC4B (amino acids 453-576)-hFc ([2]; Table 8, 20 nM peptide, FAM19A5 1 ng/mL) | Inhibition rate (%) LRRC4B (amino acids 453-576)-hFc ([2]; Table 9, deletion variants, 20 nM peptide, FAM19A5 1 ng/mL) | Inhibition rate (%) LRRC4B (amino acids 453-576)-hFc ([2]; Table 10, alanine/asparagine mutants) | dissociation of FAM19A5 from full-length LRRC4B protein [3] |
| --- | --- | --- | --- | --- | --- |
| GYTYFTTVTVETLETQPGEE [FB-20] | able to inhibit FAM19A5 protein from binding | 63.2% | 62.0% | 63.2% |  |
| B1 |  |  |  |  | largely dissociated from the full-length LRRC4B protein |
